In the supplement of paper PMC10724198:
± gives the standard deviation of the averaged measurements.

Tested on: Saccharomyces cerevisiae
Assay: protein stability index of tFT-peptide fusion (C-terminal peptide) (PSI (0-1 scale)); higher = more stable (slower turnover)
Conditions: genetic background: wild type; temperature: 30 C
Method: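 Multiplexed protein stability (MPS) profiling in S. cerevisiae. Random 12-aa peptides (tFT-X12 library) are fused to the C-terminus of a sfGFP-mCherry tandem fluorescent timer, after mCherry and a GGGS linker. Cells are FACS-sorted into 8 mCherry/sfGFP bins and deep-sequenced. The protein stability index (PSI) is the read-weighted bin average, scaled from 0 (unstable) to 1 (stable). Only peptides with >10 reads are reported; cells were grown at 30 °C in SC-His with glucose.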
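Further: PSI is a weighted mean of sequencing reads over stability bins, variants kept only with over 10 reads, mCherry proximal and sfGFP distal, peptide attached via GGGS linker.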

| Sequence | protein stability index |
| --- | --- |
| VWDGLAVAATCS | 0.597 ± 0.085 |
| VGLGMREWLGVE | 0.758 ± 0.026 |
| PLPPTPPPALSQ | 0.7 ± 0.018 |
| SPPPPPPHPSHP | 0.692 ± 0.027 |
| LCSSSLRPFFPE | 0.754 ± 0.024 |
| KGRNYVGRIRNN | 0.509 ± 0.024 |
| SFASLSFDTASF | 0.675 ± 0.0086 |
| PPYFFPSDPRPD | 0.748 ± 0.067 |
| SGRCGGESNDAE | 0.626 ± 0.012 |
| GCMGGYAFFSGG | 0.571 |
| PPSPLSTLPSPH | 0.679 ± 0.045 |
| SEKIRDQQPTPA | 0.671 ± 0.044 |
| PPPDSSLPLGSP | 0.688 ± 0.0081 |
| PLHLLPPPSSYP | 0.759 ± 0.033 |
| SFVVAVALGRLR | 0.5734 ± 0.003 |
| VISLFSSLCSRL | 0.797 ± 0.05 |
| GCAITVKRLWFG | 0.656 ± 0.076 |
| APPPREAATSIA | 0.699 ± 0.036 |
| LSKTRRPKSADM | 0.7 ± 0.025 |
| LLANYQRPSPLN | 0.705 ± 0.063 |
| GWGGGSMDLRDR | 0.702 ± 0.011 |
| TTVSSSLSPVPD | 0.7181 ± 0.0054 |
| ASRISTAFPVPP | 0.685 ± 0.057 |
| NSSPVRSSCLSA | 0.6881 ± 0.0038 |
| FSGRGSSPVAVF | 0.544 ± 0.035 |

| Sequence | protein stability index |
| --- | --- |
| QRFVKIRGLEKI | 0.693 ± 0.026 |
| RDCPVTPGTLFS | 0.744 ± 0.084 |
| KNTRLKKEKVSR | 0.829 ± 0.23 |
| PVPNPPPAPRSS | 0.698 ± 0.062 |
| GWGGFQFECGWV | 0.651 ± 0.059 |
| PLTGSLIPLFPL | 0.732 ± 0.029 |
| RPSGFVGSDVRV | 0.629 ± 0.071 |
| VYRRGESRTHGD | 0.682 ± 0.018 |
| GGGRVSAGGDSG | 0.751 ± 0.071 |
| GPYDLVSAPCLG | 0.753 ± 0.057 |
| ARRCRPVFRHAI | 0.639 ± 0.007 |
| VRFSVKPAFVRV | 0.577 ± 0.032 |
| TAPRERFGKDPR | 0.649 ± 0.056 |
| PPAPSPPVPPQL | 0.727 ± 0.026 |
| RGQTSLTGERNK | 0.701 ± 0.055 |
| TSGAEKLPIANS | 0.648 ± 0.05 |
| GSSPLLFSLLES | 0.751 ± 0.076 |
| LSRGGVSCWWGH | 0.772 ± 0.033 |
| FGLSVSSMSWNL | 0.714 ± 0.0078 |
| FSMAHLDGGHRR | 0.676 ± 0.013 |
| KLQKTKNPKSNT | 0.6624 ± 0.0046 |
| WLLGLCLFGFHR | 0.577 ± 0.013 |
| SRRRRGRGEWFG | 0.722 ± 0.019 |
| GGRGRGMGGIFG | 0.667 ± 0.053 |
| AGADCSHCVVDV | 0.696 ± 0.0096 |

| Sequence | protein stability index |
| --- | --- |
| CDQVSDGSMGTV | 0.634 ± 0.04 |
| KIKNNIKKKKNR | 0.697 ± 0.024 |
| VGVGWAALRWYG | 0.6761 ± 0.0047 |
| EKKNMRYKTVEI | 0.668 ± 0.066 |
| ELFHVGQLNSHE | 0.738 ± 0.12 |
| FNINRCLEGAHK | 0.717 ± 0.035 |
| LFRLFFVKACRF | 0.516 ± 0.0025 |
| SPPPFLLPRLFS | 0.639 ± 0.096 |
| GRGEKKREVDGG | 0.69 ± 0.065 |
| GVAAGPAVRVLT | 0.669 ± 0.032 |
| LCLFPSSFRLPP | 0.6489 ± 0.0051 |
| VRPRSSSQRPTP | 0.689 ± 0.011 |
| LRPLSFPTHTLL | 0.685 ± 0.021 |
| SPLRHIPPLHTP | 0.686 ± 0.1 |
| CVFAPLFYNVYA | 0.585 ± 0.019 |
| SNIDIEAELNKT | 0.728 ± 0.031 |
| YCWGYVVARPSV | 0.695 ± 0.017 |
| GVGLVLLGVVSG | 0.513 ± 0.025 |
| HPFSLGSLVASW | 0.6412 ± 0.0027 |
| SRAYDKSRNISI | 0.731 ± 0.062 |
| CSNGRKFKKDDA | 0.682 ± 0.059 |
| WAGGANGEWGEW | 0.8097 ± 0.0021 |
| GILPDSCRSNTG | 0.623 ± 0.081 |
| APRRPPQHPTLL | 0.626 ± 0.038 |
| PSRRHGFRLILT | 0.679 ± 0.019 |

| Sequence | protein stability index |
| --- | --- |
| KKRVHNRKEETE | 0.691 ± 0.091 |
| GLGEDVGLGLGW | 0.669 ± 0.051 |
| EYTIKTENKYKI | 0.747 ± 0.13 |
| PPLAPASPSPLP | 0.698 ± 0.023 |
| DPTVIKNQTWFG | 0.722 ± 0.05 |
| WGRFGYGPAVVG | 0.735 ± 0.063 |
| ATSCLPLPSCPG | 0.726 ± 0.019 |
| CDTIPNPLYKYD | 0.75 ± 0.055 |
| SLPPPPLLPRPL | 0.686 ± 0.061 |
| WDQLPVNMVYQC | 0.571 |
| SLRFLFPSSRFF | 0.664 ± 0.015 |
| APPLPHSSSGSL | 0.698 ± 0.028 |
| FPVPPFFLSGHL | 0.651 ± 0.11 |
| SCPQSSLASVYA | 0.529 ± 0.029 |
| RGFRPLGSGILI | 0.689 ± 0.051 |
| GINRLRNKEKEE | 0.775 ± 0.073 |
| GVWQGVGVRGWG | 0.83 ± 0.096 |
| LRGAGAGPEDVG | 0.6847 ± 0.0026 |
| SPLLASPSHLSL | 0.71 ± 0.083 |
| VLPVLTWWGELG | 0.733 ± 0.018 |
| PDYPYQDQLARL | 0.784 ± 0.058 |
| TGRQQTCRIIIE | 0.6873 ± 0.00092 |
| YSSLPPAFPNRS | 0.734 ± 0.1 |
| QVTLPHSSLLGW | 0.6749 ± 0.0028 |
| PSRDPPAGPRAR | 0.684 ± 0.048 |

| Sequence | protein stability index |
| --- | --- |
| SDPGRLVLKIRR | 0.715 ± 0.014 |
| PPPPCPSYLPPS | 0.693 ± 0.046 |
| QKHGARISSQKK | 0.703 ± 0.012 |
| NFMTEGYFWRGE | 0.767 ± 0.0087 |
| LDLELNRRCRTS | 0.675 ± 0.06 |
| HLFVCGNGVSAT | 0.684 ± 0.029 |
| GTRRHSFCSGTG | 0.703 ± 0.054 |
| VWVEVDGLLVVV | 0.534 ± 0.043 |
| VFFSCVRFCLWF | 0.562 ± 0.0082 |
| VFLISPSSFSPP | 0.738 ± 0.033 |
| FFLRNRPPLCGQ | 0.665 ± 0.012 |
| NKSHFGHSCYLR | 0.64 ± 0.013 |
| LTDITGSIRNVH | 0.673 ± 0.037 |
| RHDSYKSLHSNL | 0.743 ± 0.05 |
| PLVRGSLGALGR | 0.657 ± 0.12 |
| CGTPWHSITCSA | 0.55 ± 0.012 |
| PLPPPLPASSPP | 0.681 ± 0.045 |
| IVTSPRPPRCTS | 0.7193 ± 0.0051 |
| IGGDLGRDSTCL | 0.592 ± 0.11 |
| PPSPPSLRSSPP | 0.744 ± 0.13 |
| GSFMECIREGIF | 0.718 ± 0.058 |
| FLVFFRRPSRFF | 0.5856 ± 0.0058 |
| HSSRSPPPSPYA | 0.709 ± 0.042 |
| AGCGGGVTASGA | 0.688 ± 0.055 |
| FTGAVGPCTCRY | 0.731 ± 0.023 |

| Sequence | protein stability index |
| --- | --- |
| RAWHFWVCGWRV | 0.607 ± 0.041 |
| GEKKTNHEPGAS | 0.759 ± 0.06 |
| YCRVRYKKSVLR | 0.694 ± 0.015 |
| PPAPLPSPRRSL | 0.696 ± 0.065 |
| YQSLVSIDLGFS | 0.745 ± 0.034 |
| PVPLLPLSFSLL | 0.736 ± 0.064 |
| SSLVAFPPLPAP | 0.731 ± 0.024 |
| CFGSRDSSFGHT | 0.763 ± 0.13 |
| GGPLDASICRSS | 0.694 ± 0.061 |
| RLSSLRAFSLRS | 0.721 ± 0.026 |
| LGRPWRECIQIG | 0.66 ± 0.015 |
| MGGGGGLCGMWA | 0.723 ± 0.021 |
| NEQGTIIKRYKK | 0.737 ± 0.045 |
| LVLDCPISEVLL | 0.6403 ± 0.0055 |
| SCPRASSSSLTA | 0.671 ± 0.07 |
| QSPATIPFASHR | 0.731 ± 0.014 |
| PSALSSSAPSSP | 0.667 ± 0.043 |
| QRGCEAKRGGEG | 0.628 ± 0.014 |
| GQGRGERRRVRP | 0.653 ± 0.075 |
| DLLPGAGRDSRL | 0.775 ± 0.21 |
| GHGFPSLPLILS | 0.57 ± 0.076 |
| RRLFVMDKRKRK | 0.716 ± 0.033 |
| FLRILRLTPRRP | 0.728 ± 0.036 |
| GGFRSVCGGVNW | 0.665 ± 0.011 |
| PLPSPSYLKSPC | 0.705 ± 0.013 |

| Sequence | protein stability index |
| --- | --- |
| GVRAPPSPVSGL | 0.6711 ± 0.0066 |
| RWTLMMAIIRQR | 0.559 ± 0.024 |
| FSVSLACYPSMC | 0.698 ± 0.075 |
| PPLPDSPPPVPP | 0.633 ± 0.017 |
| FLLVSLKQCHGR | 0.73 ± 0.036 |
| LGAIGFVVVGGL | 0.622 ± 0.029 |
| RGVDVWQGRTVP | 0.6879 ± 0.0031 |
| PPPPPPSPLPPY | 0.703 ± 0.01 |
| NKGHGAHSRECE | 0.65 ± 0.025 |
| GLVRGGWGTVGG | 0.805 ± 0.24 |
| KQRGSKVIIKVD | 0.663 ± 0.011 |
| PGSPPGLERLGR | 0.694 ± 0.059 |
| FRGRSSLSTSCG | 0.69 ± 0.023 |
| ADPWSFKIVKEL | 0.542 ± 0.028 |
| STVSLASPARSP | 0.683 ± 0.048 |
| SWFYTQSEKTLS | 0.7798 ± 0.005 |
| IVFRLGRFCGRV | 0.709 ± 0.018 |
| RGGGGGRKVSVG | 0.658 ± 0.062 |
| GGGGCDVGGCVG | 0.675 ± 0.039 |
| GEGRGRTETEMK | 0.682 ± 0.033 |
| SEARCVGSVWGG | 0.757 ± 0.098 |
| GSGRRGLMGRKS | 0.728 ± 0.011 |
| EETRLQEVNRIL | 0.737 ± 0.033 |
| SGGRTSRREGGR | 0.643 ± 0.075 |
| FSLLPYFPYALP | 0.739 ± 0.089 |

| Sequence | protein stability index |
| --- | --- |
| GMQPRGVRRATS | 0.728 ± 0.023 |
| RSVIEHKMRKKR | 0.682 ± 0.026 |
| EEHWDCEYVAFH | 0.719 ± 0.015 |
| SSLPLPRVPPPP | 0.717 ± 0.032 |
| GRGLGGWARGWW | 0.69008 ± 0.00035 |
| ERIIGNRCYVRK | 0.666 ± 0.039 |
| CGLSAGIVLFFC | 0.58 ± 0.012 |
| PPPSTRSNPGLD | 0.745 ± 0.028 |
| LRFRPLSGRAFF | 0.664 ± 0.051 |
| DSVYYVYRSTRV | 0.679 ± 0.044 |
| APLPASPPIPSS | 0.662 ± 0.12 |
| PLEPDFLIGGNA | 0.807 ± 0.16 |
| NTTFISRRLPPR | 0.687 ± 0.0089 |
| LSPALPPPMSAA | 0.577 ± 0.026 |
| IKFMTTGVRTMG | 0.662 ± 0.03 |
| GLVGSGFVCIGM | 0.697 ± 0.15 |
| RVRLSLDSPLGL | 0.684 ± 0.044 |
| ARGGTAVYKAAG | 0.668 ± 0.02 |
| PPRSFPGTPLIA | 0.67 ± 0.069 |
| LLLRSSPVSLSR | 0.7162 ± 0.0034 |
| NIKKKKKETKNN | 0.676 ± 0.024 |
